Columns and labels:
[1] = target: T1, Interleukin-6 (IL6) (human, UniProt P05231 30-212); assay: DPV (electrochemical aptasensor); [Fe(CN)6]4- redox probe; Hill fit, coefficient fixed at 1; Aptamer on GNR-functionalized gold electrodes, [Fe(CN)6]4- redox probe; sensing buffer, pH and temperature not given in the material (aptamer clicked in PBS 1X); details: protein: commercial
[2] = target: T1, Interleukin-6 (IL6); assay: EIS (electrochemical aptasensor); [Fe(CN)6]4- redox probe; phase shift; Hill fit, coefficient fixed at 1; Aptamer on GNR-functionalized gold electrodes, [Fe(CN)6]4- redox probe; sensing buffer, pH and temperature not given in the material (aptamer clicked in PBS 1X); details: protein: commercial

T1 sequence (P05231 30-212): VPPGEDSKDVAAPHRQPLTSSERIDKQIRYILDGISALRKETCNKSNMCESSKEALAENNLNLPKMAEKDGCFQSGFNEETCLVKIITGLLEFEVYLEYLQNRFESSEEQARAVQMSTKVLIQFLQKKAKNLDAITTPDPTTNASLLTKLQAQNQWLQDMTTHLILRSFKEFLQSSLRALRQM

B1: IL6 DNA aptamer (azide-modified) (ssDNA)
DNA: TTTTTTCTTCCAACGCTCGTATTGTCAGTCTTTAGT
modifications: 5' azide (/5AzideN/), clicked by CuAAC to alkyne graphene nanoribbons on gold electrode
Q: What does the source list for B1?
A: Kd [1]: 3.4 ± 0.4 nM; Kd [2]: 10.4 ± 3.1 nM

— article PMC10962640, ““Clickable” graphene nanoribbons for biosensor interfaces†”
